Biological target: LS-Rg, chimeric protein of the extracellular domain of human L-selectin joined to the Fc domain of a human G2 immunoglobulin (human) (UniProt P14151)
Test: competition of unlabeled antibody with radio-labeled 2'-F RNA ligand LF1807 for purified LS-Rg

LS-Rg, chimeric protein of the extracellular domain of human L-selectin joined to the Fc domain of a human G2 immunoglobulin (human), sequence (P14151 39-332, change not shown): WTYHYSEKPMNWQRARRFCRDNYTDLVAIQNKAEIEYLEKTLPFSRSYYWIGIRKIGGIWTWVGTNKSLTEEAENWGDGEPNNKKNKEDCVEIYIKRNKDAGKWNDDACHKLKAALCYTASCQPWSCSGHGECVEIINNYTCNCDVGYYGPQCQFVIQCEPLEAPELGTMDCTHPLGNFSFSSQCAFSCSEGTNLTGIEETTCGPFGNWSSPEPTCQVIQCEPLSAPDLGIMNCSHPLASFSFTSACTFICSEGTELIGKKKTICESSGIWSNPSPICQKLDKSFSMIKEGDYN

concentration giving complete inhibition: 300 nM
Substance: DREG-56, blocking monoclonal anti-L-selectin antibody

— patent US20090118481A1
